Reference: patent publication JP2021054739A (dated 2021)

Target: T1, Recombinant Human CEACAM-5/CD66e Protein, CF (R&D SYSTEMS) (human, UniProt P06731 35-685)
T1 construct: Bought recombinant protein, immobilised on a CM5 chip by amine coupling; also called 抗原CEACAM5
T1 sequence (looked up): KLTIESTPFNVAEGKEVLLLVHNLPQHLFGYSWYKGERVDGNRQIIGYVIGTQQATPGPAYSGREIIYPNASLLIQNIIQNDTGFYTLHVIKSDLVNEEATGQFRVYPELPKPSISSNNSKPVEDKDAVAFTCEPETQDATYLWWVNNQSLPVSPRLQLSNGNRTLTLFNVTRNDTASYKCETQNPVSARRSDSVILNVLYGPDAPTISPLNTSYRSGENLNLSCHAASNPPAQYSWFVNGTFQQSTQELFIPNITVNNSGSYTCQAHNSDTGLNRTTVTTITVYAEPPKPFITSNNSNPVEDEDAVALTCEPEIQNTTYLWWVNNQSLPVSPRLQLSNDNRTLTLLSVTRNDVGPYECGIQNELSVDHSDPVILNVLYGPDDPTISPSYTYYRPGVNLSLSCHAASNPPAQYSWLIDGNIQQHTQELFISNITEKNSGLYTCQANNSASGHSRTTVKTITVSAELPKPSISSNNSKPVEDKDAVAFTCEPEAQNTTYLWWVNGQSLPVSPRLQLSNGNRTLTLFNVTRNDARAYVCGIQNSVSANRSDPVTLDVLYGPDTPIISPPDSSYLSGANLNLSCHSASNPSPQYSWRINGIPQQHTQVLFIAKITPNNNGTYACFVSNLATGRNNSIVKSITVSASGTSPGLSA
Experiment: SPR, Biacore T200; CEACAM5 immobilised on CM5 (279 RU), CEA-V2122 as analyte, single-cycle kinetics, bivalent analyte fit; KD = kd1/ka1

B1: CEA-V2122 (scFv)
chain: QVKLEQSGAEVVKPGASVKLSCKASGFNIKDSYMHWLRQGPGQRLEWIGWIDPENGDTEYAPKFQGKATFTTDTSANTAYLGLSSLRPEDTAVYYCNEGTPTGPYYFDYWGQGTLVTVSSGGGGSGGGGSGGGGSENVLTQSPSSMSVSVGDRVNIACSASSSVPYMHWLQQKPGKSPKLLIYLTSNLASGVPSRFSGSGSGTDYSLTISSVQPEDAATYYCQQRSSYPLTFGGGTKLEIKGGGGSGGGGAEAGITGTWSDQLGDTFIVTAGADGALTGTYENAVGGAESRYVLTGRYDSAPATDGSGTALGWTVAWKNNSKNAHSATTWSGQYVGGADAKINTQWLLTSGTTNANAWKSTLVGHDTFTKVKPSAASHHHHHH
notes: Fusion of an scFv with a streptavidin mutant; also called scFv-V2122; CEA-Cupid
B1 was tested, and the Kd was 1.08 pM.
